One block for each molecule: values may come before it.
Assays:
Ostm1 = experiment: Western blot of Ostm1 species after incubating fibroblasts with protease inhibitors; format: cell-based; conditions: fibroblasts incubated with protease inhibitor, FIG. 1 part (d)
[1] = molecular target: T1, ClC-3, endogenous, from solubilized mouse brain membranes (mouse, UniProt P51791 1-818, limits assumed); experiment: co-immunoprecipitation from solubilized mouse brain membranes, Western blot
T1 construct: Specificity control in the brain co-immunoprecipitation; also called CIC-3
T1 sequence (looked up): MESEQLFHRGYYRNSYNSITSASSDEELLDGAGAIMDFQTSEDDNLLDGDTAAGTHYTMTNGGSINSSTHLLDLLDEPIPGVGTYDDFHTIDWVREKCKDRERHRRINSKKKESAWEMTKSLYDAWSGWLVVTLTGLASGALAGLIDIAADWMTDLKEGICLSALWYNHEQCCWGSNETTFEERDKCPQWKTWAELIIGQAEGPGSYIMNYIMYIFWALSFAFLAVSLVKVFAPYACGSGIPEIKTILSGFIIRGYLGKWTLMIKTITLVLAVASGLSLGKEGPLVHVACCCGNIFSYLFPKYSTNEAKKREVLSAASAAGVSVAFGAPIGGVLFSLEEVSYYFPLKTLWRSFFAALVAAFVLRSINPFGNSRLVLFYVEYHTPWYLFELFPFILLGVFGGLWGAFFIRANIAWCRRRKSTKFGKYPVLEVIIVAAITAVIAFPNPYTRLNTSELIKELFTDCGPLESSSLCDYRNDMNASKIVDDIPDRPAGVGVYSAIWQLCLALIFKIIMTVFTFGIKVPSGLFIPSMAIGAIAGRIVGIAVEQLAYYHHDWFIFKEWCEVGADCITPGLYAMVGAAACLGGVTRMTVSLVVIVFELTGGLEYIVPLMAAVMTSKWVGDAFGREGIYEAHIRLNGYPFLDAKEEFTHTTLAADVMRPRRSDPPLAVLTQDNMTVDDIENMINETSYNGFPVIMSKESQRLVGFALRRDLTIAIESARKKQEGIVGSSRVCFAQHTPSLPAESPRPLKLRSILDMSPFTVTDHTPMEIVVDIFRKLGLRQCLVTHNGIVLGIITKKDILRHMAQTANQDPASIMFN
Source text: (§1) ClC-7 and Ostm1 can be co-immunoprecipitated using endogenous material (FIG. part (d)) or overexpressed proteins (FIG. 6). […] Solubilized brain membranes from the genotypes indicated were directly loaded on the gel (input, lanes 1-3), or first immunoprecipitated with ClC-7 (lanes 4,5) or Ostm1 antibodies (lanes 6,7).
(§2) Ostm1 or ClC-7 antibodies were crosslinked to protein A sepharose by dimethylpimelimidate. Brain membranes were pelleted and solubilized in lysis buffer (MES buffered saline pH 6.5, 1% Triton X-100, 2.5 mM CaCl_2, 2.5 mM MgCl_2). Non-solubilized material was removed by centrifugation at 70,000×g. Samples were incubated with protein A sepharose-antibody complexes for 2 h at 4° C. and washed 4× with lysis buffer. After elution with 100 μl 0.1 M glycine/Cl, pH 2.8, samples were neutralized and denatured using SDS sample buffer. Equivalent amounts of lysate and precipitate were separated by SDS-PAGE.
(§3) Resulting Western blots were probed for the proteins indicated at right. Arrowheads, specific Ostm1 bands; *, non-specific bands. Equivalent amounts of lysates and precipitates were loaded.

[2] = molecular target: T2, ClC-6, endogenous, from solubilized mouse brain membranes (mouse, UniProt O35454 1-870); experiment: as above
T2 construct: Specificity control in the brain co-immunoprecipitation; also called CIC-6
T2 sequence (looked up): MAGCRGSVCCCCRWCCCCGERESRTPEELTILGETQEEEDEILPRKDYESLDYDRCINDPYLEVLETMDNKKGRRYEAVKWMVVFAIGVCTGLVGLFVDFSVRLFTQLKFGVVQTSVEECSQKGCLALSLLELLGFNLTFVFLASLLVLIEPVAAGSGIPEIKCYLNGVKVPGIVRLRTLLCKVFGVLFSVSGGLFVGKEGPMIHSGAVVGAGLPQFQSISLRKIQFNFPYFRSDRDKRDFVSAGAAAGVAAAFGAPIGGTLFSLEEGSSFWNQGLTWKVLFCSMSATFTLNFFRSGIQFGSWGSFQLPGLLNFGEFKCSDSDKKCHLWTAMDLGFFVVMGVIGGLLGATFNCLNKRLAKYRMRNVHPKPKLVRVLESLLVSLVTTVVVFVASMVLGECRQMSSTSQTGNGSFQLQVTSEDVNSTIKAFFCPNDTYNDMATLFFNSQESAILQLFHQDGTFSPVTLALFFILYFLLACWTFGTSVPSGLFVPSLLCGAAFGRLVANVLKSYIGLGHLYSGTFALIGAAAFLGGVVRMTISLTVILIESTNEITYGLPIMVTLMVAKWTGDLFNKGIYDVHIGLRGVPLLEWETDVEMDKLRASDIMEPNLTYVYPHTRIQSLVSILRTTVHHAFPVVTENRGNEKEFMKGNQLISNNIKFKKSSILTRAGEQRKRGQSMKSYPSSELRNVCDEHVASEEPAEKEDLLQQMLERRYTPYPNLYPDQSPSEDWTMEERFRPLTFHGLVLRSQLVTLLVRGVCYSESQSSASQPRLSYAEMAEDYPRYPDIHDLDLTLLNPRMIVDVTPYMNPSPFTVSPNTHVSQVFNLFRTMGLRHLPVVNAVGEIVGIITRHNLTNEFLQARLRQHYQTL
Source text: as §1, §2, §3

[3] = molecular target: T3, lamp-2, endogenous, from solubilized mouse brain membranes (mouse, UniProt P17047 26-415, limits assumed); experiment: as above
T3 construct: Specificity control in the brain co-immunoprecipitation
T3 sequence (looked up): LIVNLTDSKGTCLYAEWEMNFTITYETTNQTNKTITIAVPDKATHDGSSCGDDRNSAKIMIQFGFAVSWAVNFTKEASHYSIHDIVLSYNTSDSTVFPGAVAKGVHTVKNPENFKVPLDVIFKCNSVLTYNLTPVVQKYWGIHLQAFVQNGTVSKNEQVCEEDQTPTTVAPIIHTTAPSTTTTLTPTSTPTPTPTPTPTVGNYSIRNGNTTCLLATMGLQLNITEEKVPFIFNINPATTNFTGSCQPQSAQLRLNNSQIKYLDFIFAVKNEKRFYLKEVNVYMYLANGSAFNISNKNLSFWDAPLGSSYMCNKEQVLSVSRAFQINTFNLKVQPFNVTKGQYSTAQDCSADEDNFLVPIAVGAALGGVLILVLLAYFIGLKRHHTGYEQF
Source text: as §1, §2, §3

Molecule: CC(=O)N[C@@H](CC(C)C)C(=O)N[C@@H](CC(C)C)C(=O)N[C@H](C=O)CCCNC(=N)N [leupeptin]
proportion of the large (~80 kD) Ostm1 species versus the smaller ones (Ostm1): increased the proportion of the large Ostm1 species

binding result [1]: no binding
binding result [2]: no binding
binding result [3]: no binding
B1: Ostm1 (Osteopetrosis-associated transmembrane protein 1), endogenous, from solubilized mouse brain membranes (other, UniProt Q8BGT0 35-338, looked up)
chain: ALPFTSSRHPGFADLLSEQQLLEVQDLTLSLLQGGGLGPLSLLPPDLPDLEPECRELLMDFANSSAELTACMVRSARPVRLCQTCYPLFQQVAIKMDNISRNIGNTSEGPRCGGSLLTADRMQIVLMVSEFFNSTWQEANCANCLTNNGEDLSNNTEDFLSLFNKTLACFEHNLQGHTYSLLPPKNYSEVCRNCKEAYKNLSLLYSQMQKLNGLENKAEPETHLCIDVEDAMNITRKLWSRTFNCSVTCSDTVSVVAVSVFILFLPVVFYLSSFLHSEQKKRKLILPKRLKSSTSFANIQENAT
modifications: N-linked glycosylation of the luminal domain
notes: Endogenous protein immunoprecipitated from Triton X-100 solubilized mouse brain membranes; also called product of the OSTM1 gene

Reference: patent US7851165B2, “Screening compounds for activity in modulating chloride ion transport” (Pharmos Bioscience A/S, priority 2005, dated 2010)
